From paper PMC9198364 (Molecular Therapy. Methods & Clinical Development, 2022)

Assays:
[1] = biological target: adeno-associated virus (AAV) 9 capsid (recombinant AAV9 particles) (adeno-associated virus 9, UniProt Q6JC40 1-736); assay: SPR
[2] = biological target: AAVPHP.eB capsid (recombinant AAVPHP.eB particles) (adeno-associated virus 9 (parental serotype)) (UniProt Q6JC40); assay: SPR

B1: soluble AAV receptor (AAVR) extracellular fragment containing PKD1-5 (domain or fragment)
chain: RKNRPPIAIVSPQFQEISLPTTSTVIDGSQSTDDDKIVQYHWEELKGPLREEKISEDTAILKLSKLVPGNYTFSLTVVDSDGATNSTTANLTVNK
For B1, the Kd [1] was 138 nM and the Kd [2] was 274 nM.
